From patent publication US20060257938A1, “Method of screening for drugs that block ligand binding to a lipid binding protein” (priority 2005, published 2006)

Key:
Format in all cases: binding
[1] = Probe fluorescence ratio response to stearic acid relative to ADIFAB2; conditions: Table 5
Summary of the method: (§1)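 Fluorescently labeled rat intestinal FABP variants were read at two emission wavelengths, near the unbound maximum (about 420 to 480 nm) and the FFA-bound maximum (about 495 to 580 nm). R = Fλ1/Fλ2 after subtracting probe-free intensity; ΔR = R+agent − R0, normalized to ADIFAB2 (rI-FABP-L72A).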

[2] = Probe fluorescence ratio response to palmitoleic acid relative to ADIFAB2; conditions: Table 5
Summary of the method: as §1

[3] = Probe fluorescence ratio response to arachidonic acid relative to ADIFAB2; conditions: Table 5; Arachidonic acid
Summary of the method: as §1

[4] = Probe fluorescence ratio response to linoleic acid relative to ADIFAB2; conditions: Table 5
Summary of the method: as §1

[5] = Probe fluorescence ratio response to palmitic acid relative to ADIFAB2; conditions: Table 5
Summary of the method: as §1

[6] = Probe fluorescence ratio response to linolenic acid relative to ADIFAB2; conditions: Table 5
Summary of the method: as §1

[7] = Probe fluorescence ratio response to oleic acid relative to ADIFAB2; conditions: Table 5
Summary of the method: as §1

| Molecule | ΔR/DRAΔ2 SA [1] | ΔR/DRAΔ2 POA [2] | ΔR/DRAΔ2 AA [3] | ΔR/DRAΔ2 LA [4] | ΔR/DRAΔ2 PA [5] | ΔR/DRAΔ2 LNA [6] | ΔR/DRAΔ2 OA [7] |
| --- | --- | --- | --- | --- | --- | --- | --- |
| L2P4C5: FABP probe, substitutions M18I G31Y vs SEQ ID NO: 2 (protein, listed as Rattus norvegicus, PEPTIDE (1)...(131) wild-type rat intestinal fatty acid binding protein) AFDGTWKVDRNENYEKFIEKMGINVVKRKLYAHDNLKLTITQEGNKFTVKESSNFRNIDVVFELGVDFAYSLADGTELTGTWTMEGNKLVGKFKRVDNGKELIAVREISGNELIQTYTYEGVEAKRIFKKE | 1.0 | 2.6 | 2.2 | 2.8 | 1.8 | 2.8 | 2.1 |
| L2P12G9: FABP probe, substitutions M18L A73V vs SEQ ID NO: 2 (protein, listed as Rattus norvegicus, PEPTIDE (1)...(131) wild-type rat intestinal fatty acid binding protein) AFDGTWKVDRNENYEKFLEKMGINVVKRKLGAHDNLKLTITQEGNKFTVKESSNFRNIDVVFELGVDFAYSLVDGTELTGTWTMEGNKLVGKFKRVDNGKELIAVREISGNELIQTYTYEGVEAKRIFKKE | 0.4 | 0.0 | 0.5 | −0.1 | 0.0 | 0.0 | 0.0 |
| L2P1E6: FABP probe, substitutions M18L A73L vs SEQ ID NO: 2 (protein, listed as Rattus norvegicus, PEPTIDE (1)...(131) wild-type rat intestinal fatty acid binding protein) AFDGTWKVDRNENYEKFLEKMGINVVKRKLGAHDNLKLTITQEGNKFTVKESSNFRNIDVVFELGVDFAYSLLDGTELTGTWTMEGNKLVGKFKRVDNGKELIAVREISGNELIQTYTYEGVEAKRIFKKE | 0.2 | 0.1 | 0.4 | 0.1 | 0.0 | 0.1 | 0.1 |
| L2P9E12: FABP probe, substitutions M18L F55L A73I vs SEQ ID NO: 2 (protein, listed as Rattus norvegicus, PEPTIDE (1)...(131) wild-type rat intestinal fatty acid binding protein) AFDGTWKVDRNENYEKFLEKMGINVVKRKLGAHDNLKLTITQEGNKFTVKESSNLRNIDVVFELGVDFAYSLIDGTELTGTWTMEGNKLVGKFKRVDNGKELIAVREISGNELIQTYTYEGVEAKRIFKKE | 0.4 | 0.8 | 0.6 | 0.7 | 1.1 | 0.9 | 0.6 |
| L2P8F11: FABP probe, substitution A73I vs SEQ ID NO: 2 (protein, listed as Rattus norvegicus, PEPTIDE (1)...(131) wild-type rat intestinal fatty acid binding protein) AFDGTWKVDRNENYEKFMEKMGINVVKRKLGAHDNLKLTITQEGNKFTVKESSNFRNIDVVFELGVDFAYSLIDGTELTGTWTMEGNKLVGKFKRVDNGKELIAVREISGNELIQTYTYEGVEAKRIFKKE | 0.3 | 0.1 | 0.4 | 0.0 | 0.0 | 0.1 | 0.0 |
